The values that follow come from article PMC2897767, “Two Distinct Mechanisms for Actin Capping Protein Regulation—Steric and Allosteric Inhibition” (PLoS Biology, 2010).

The target of assay [1] is CP. Particulars: ref Fujiwara, et al.; cited from earlier work. The source says:
We tested the importance of the C-terminal flanking regions of the CP-binding motif using a binding assay (Table 2; the constructs used for the measurement are shown in Figure 9B). […] In the second CP binding site in the CP/CBR115 complex, human CARMIL Val1034 (corresponding to mouse CA1038), which is missing in GST-76, forms multiple interactions with CP α-subunit residues. Thus, the absence of this key valine in GST-CA76 results in the lower CP binding affinity compared with the full active CARMIL fragments.

Assay [2] concerns CP. Particulars: estimated, cited from earlier work. From the text: How do CARMIL proteins inhibit the capping activity of CP in an allosteric manner? […] We propose that CARMIL proteins inhibit CP in a similar manner (Figure 13C); CARMIL proteins limit the conformational distribution of CP to ...
For assay [3], the system named is CP. Kind of assay: SPR binding of CP to immobilized GST-CD2AP / GST-CARMIL fragments. The arrangement: species or system chicken. The conditions noted are these: 20°C; for kon / koff: SPR (Biacore), CP perfused, 1:1 binding model; for kon: GST-fusion immobilized via anti-GST antibody on CM5 chip, 50 mM KCl, 1 mM MgCl2, 0.005% Tween-20, 10 mM imidazole pH 7.0; for koff: GST-fusion immobilized. The method, then: (§1) Expression vectors for chicken CPfull and CPΔβC were constructed in pETDuet-1 by PCR, using pET-3d/CP [38] as the template. CP was expressed in E. coli Rosetta2 (DE3) and was purified as described. V-1 (human), expressed in E. coli Rosetta2 (DE3) as a GST-fusion protein, was affinity-purified and the tag was removed. Synthetic peptides derived from CARMIL proteins were obtained from Invitrogen. For crystallization, CP was incubated with a 1.2–2.0-fold molar excess of V-1 or CARMIL peptides at 4°C for 2 h, followed by gel filtration to purify the complexes. Expression vectors for the GST-CA constructs were prepared from the mouse cDNA clone as previously described. Vectors for GST-CD fragments were constructed by PCR cloning using a human whole brain cDNA library (Clontech) as the template. Amplified DNA fragments were cloned into pGEX-6P-1. GST-fusion proteins were expressed in E. coli Rosetta2 (DE3) cells and affinity-purified using glutathione sepharose resin. Mutations were introduced using a Quikchange mutagenesis kit (Stratagene). Actin was prepared from rabbit skeletal muscle, as previously described, and was further purified by gel filtration chromatography. Pyrene labeled-actin was prepared as described. Spectrin-actin seeds were prepared from rabbit red blood cells, as previously described.
(§2) The binding affinities of CP for V-1 or CARMIL proteins were evaluated by surface plasmon resonance measurements with Biacore 3000 or Biacore 2000 instruments (GE Healthcare). GST-fusion proteins (GST-V-1, GST-CA, or GST-CD) were immobilized onto a CM5 sensor chip up to 200 RU (response units; 200 pg/mm^2) via anti-GST antibodies. CP at various concentrations in running buffer (50 mM KCl, 1 mM MgCl2, 0.005% Tween-20, 10 mM imidazole, pH 7.0) was perfused over the chip at 20°C, at a flow rate of 20 µl/min. Response curves were obtained by subtracting the background signal generated simultaneously on a control flow cell with immobilized GST. To measure the effect of the CARMIL peptides on the facilitation of CP/V-1 dissociation (in Figure 11C and 11D), we used the “co-inject” mode for successive injections of the peptides followed by CP. Kinetic parameters were determined by fitting the sensorgrams to a simple 1∶1 binding model, using the Bia-evaluation software (GE Healthcare). KD values were obtained from the kinetic rate constants. […] KD values were evaluated by plotting these values against the concentrations of CP.

The subject of another assay is CP (β) D44N. Briefly: SPR binding of mutant CP to immobilized GST-CD56 / GST-CA92. Further details: species or system chicken. The conditions noted are these: analyte CP (β) D44N, 20°C, pH 7.0. The method, then:
as §1, §2

For a further assay, the system named is CP (β) D67N. Described as above. The arrangement: species or system chicken. The conditions noted are these: analyte CP (β) D67N, 20°C, pH 7.0. The method, then:
as §1, §2

For the next assay, the system named is CP (β) D63N. The description is as above. The conditions noted are these: analyte CP (β) D63N, 20°C, pH 7.0. The arrangement: species or system chicken. The method, then: as §1, §2
The subject of the next assay is CP (β) Y64F. The description is as above. Further details: species or system chicken. Particulars: analyte CP (β) Y64F, 20°C, pH 7.0. The method, then: as §1, §2
The next assay relates to CPfull (wild type CP). Briefly: Actin polymerization assay (barbed end elongation from spectrin-actin seeds): inhibition of CP capping. It counts as biochemical, chicken. Particulars: actin 1.2 µM (5% pyrene-labeled), 7.2 nM CPfull, 25°C (Figure 9F). The method, then: (A) Superposition of the C-termini of the peptides. CD Phe505 and CK Arg169 are shown as stick models. The conserved proline at the C-terminus of the motifs is shown as balls. (B) CD2AP constructs used for biochemical assays. (C) CARMIL constructs used for biochemical assays. […] Actin (1.2 µM, 5% pyrene-labeled) was polymerized from spectrin-actin seeds in the presence of 3.6 nM CPfull (D), 10 nM CPβΔC (E), or 7.2 nM CPfull (F) with various concentrations of CARMIL peptides or GST-CA constructs.
The barbed end elongation assay from spectrin-actin seeds was performed essentially as previously described. Briefly, G-actin was stored in G-buffer (0.2 mM CaCl2, 0.2 mM ATP, 0.5 mM DTT and 10 mM imidazole, pH 7.0). At 90 s prior to polymerization, the Ca^2+ was replaced with Mg^2+, by the addition of 1/10 volume of 10 mM EGTA and 1 mM MgCl2 to G-actin. […] Actin polymerization was measured by monitoring the pyrene-actin fluorescence (excitation 370 nm; emission 410 nm) at 25°C.
(0.16 MB TIF) Click here for additional data file.

Read-outs that look alike come from different tables or passages of the source. A value given as a limit tells only on which side of the number the result lay.

B1: mCAH3: mCAH3 fragment, mouse CARMIL residues 965-1038 (protein, UniProt Q6EDY6 965-1038, looked up, fragment)
chain: VRQEKRSSGLISELPSEEGRRLEHFTKLRPKRNKKQQPTQAAVCTISILPQDGEQNGLMGRVDEGVDEFFTKKV
For orientation: Kd means the free concentration of one partner at which half of the binding sites on the other are occupied at equilibrium, for simple one-to-one binding. In the case of B1, the Kd at CP [1] was around 1 nM.

B2: CARMIL: multi-domain protein (∼150 kDa) that binds CP and uncaps filaments (protein, UniProt Q6EDY6 1-1374, looked up)
F-actin-uncapping protein …: MTDESSDVPRELMESIKDVIGRKIKISVKKKVKLEVKGDRVENKVLVLTSCRAFLLSARIPSKLELTFSYLEIHGVICHKPAQMVVETEKCNMSMKMVSPEDVSEVLAHIGTCLRRIFPGLSPLRIMKKVSMEPSERLASLQALWDSQTLAEPGPCGGFSQMYACVCDWLGFSYKEEVQWDVDTIYLTQDTRELNLQDFSHLEHRDLIPIIAALEYNQWFTKLSSKDLKLSTDVCEQILRVVSRSNRLEELVLENAGLRIDFAQKLAGALAHNPNSGLHTINLAGNSLEDRGVSSLSIQFAKLPKGLKHLNLSKTSLSPKGVNSLCQSLSANPLTASTLTHLDLSGNALRGDDLSHMYNFLAQPNTIVHLDLSNTECSLEMVCSALLRGCLQCLAVLNLSRSVFSHRKGKEVPPSFKQFFSSSLALIQINLSGTKLSPEPLKALLLGLACNHSLKGVSLDLSNCELGHCLRSGGAQVLEGCIAEIHNITSLDISDNGLESDLSTLIVWLSKNRSIQHLALGKNFNNMKSKNLTPVLDNLVQMIQDEDSPLQSLSLADSKLKAEVTIIINALGSNTSLTKVDISGNGMGDMGAKMLAKALQINTKLRTVIWDKNNITAQGFQDIAVAMEKNYTLRFMPIPMYDAAQALKTNPEKTEEALQKIENYLLRNHETRKYLQEQAYRLQQGIVTSTTQQMIDRICVKVQDHLNSLRACGGDAIQEDLKAAERLMRDAKNSKTLLPNLYHVGGASWAGASGLSSSPIQETLESMAGEVTRVVDEQLKDLLESMVDAAETLCPNVMRKAHIRQDLIHASTEKISIPRTFVKNVLLEQSGIDILNKISEVKLTVASFLSDRIVDEILDSLSSSHRKLANHFSRLNKSLPQREDLEVELVEEKPVKRAILTVEDLTEVERLEDLDTCMMTPKSKRKSIHSRMLRPVSRAFEMEFDLDKALEEVPIHIEDPPFPSVRQEKRSSGLISELPSEEGRRLEHFTKLRPKRNKKQQPTQAAVCTISILPQDGEQNGLMGRVDEGVDEFFTKKVTKMDCKRSSSRSSDAHELGEGDEKKKRDSRRSGFLNLIKSRSRSERPPTVLMTEELSSPKGAMRSPPVDTTRKEIKAAEHNGAPDRTEEIKTPEPLEEGPAEEAGRAERSDSRGSPQGGRRYVQVMGSGLLAEMKAKQERRAACAQKKLGNDVISQDPSSPVSCNTERLEGGATVPKLQPGLPEARFGSGTPEKNAKAEPRVDGGCRSRSSSSMPTSPKPLLQSPKPSPSARPSIPQKPRTASRPEDTPDSPSGPSSPKVALLPPILKKVSSDKERDGQNSSQSSPRSFSQEASRRSWGPAQEYQEQKQRSSGKDGHQGSKCSDSGEEAEKEFIFV
B2: the “affinity for barbed end-bound CP lower than for free CP” value is listed as 10- to 100 fold in the assay on CP [2] (ref 23) and 200 fold in the assay with CP [2] (ref 29).

B3: GST-CA92: GST fusion of mouse CARMIL residues 962–1053 (protein)
chain: FPSVRQEKRSSGLISELPSEEGRRLEHFTKLRPKRNKKQQPTQAAVCTISILPQDGEQNGLMGRVDEGVDEFFTKKVTKMDCKRSSSRSSDA
modifications: left off: GST, end not stated, kept
As a reminder, the kon is the rate constant with which the complex forms. Low values mean slower complex formation, high ones faster complex formation. For orientation: koff means the rate constant with which the complex falls apart. Read a high koff as a short-lived complex. B3 showed an association rate constant (kon) in the assay on CP [3] of 1.6e+06 M⁻¹ s⁻¹. Further, the dissociation rate constant (koff) was 0.0052 s⁻¹ in the assay on CP [3] (pH 7.0); above 0.1 s⁻¹ in the assay on CP (β) D44N; above 0.1 s⁻¹ with CP (β) D67N; above 0.1 s⁻¹ with CP (β) D63N; 0.0046 s⁻¹ in the assay on CP (β) Y64F. In addition, the Kon in the assay on CP (β) Y64F turned out to be 460000 M⁻¹ s⁻¹. Further, in the assay with CPfull (wild type CP), the “CP inhibitory activity of GST-CARMIL constructs” value is “strongest CP inhibitory effect”.

B4: GST-CA63: GST fusion of mouse CARMIL residues 962–1024 (protein)
chain: FPSVRQEKRSSGLISELPSEEGRRLEHFTKLRPKRNKKQQPTQAAVCTISILPQDGEQNGLMG
modifications: left off: GST, end not stated, kept
Consider B4, for which the koff in the assay with CP [3] (pH 7.0) is above 0.1 s⁻¹. Also, the “KD (in words)” value on CP [3] (SPR, pH 7.0) is reported as “micromolar range”.

B5: GST-CA76: GST fusion of mouse CARMIL residues 962–1037 (protein)
chain: FPSVRQEKRSSGLISELPSEEGRRLEHFTKLRPKRNKKQQPTQAAVCTISILPQDGEQNGLMGRVDEGVDEFFTKK
modifications: left off: GST, end not stated, kept
Molecule B5 had an association rate constant (kon) in the assay on CP [3] of 230000 M⁻¹ s⁻¹. Further, in the assay on CP [3] (pH 7.0), the koff was 0.019 s⁻¹.
